The values that follow come from patent US20240132578A1.

In general, IC50 refers to the point on the concentration scale where inhibition reaches its midpoint. Low values mean greater potency in that assay, high ones weaker potency in that assay.

Assay in all cases: cell-based or functional assay
Experiment [1] concerns the target HIV-1 92UG024 envelope protein (Env) on pseudovirus (HIV-1).
Experiment [2] addresses HIV-1 envelope glycoprotein (Env) of isolate 92RW008, subtype A (HIV-1).
Experiment [3] deals with HIV-1 MGRM-C-027 Env (HIV-1).
Experiment [4] addresses HIV-1 envelope glycoprotein (Env) of isolate 92WR021, subtype A (HIV-1).
For experiment [5], the target named is HIV-1 JR-CSF Env N396A (HIV-1 (isolate JR-CSF)) (UniProt P20871).
Experiment [6] has as its target HIV-1 envelope glycoprotein (Env) of isolate MGRM-Chronic-B-011, on pseudovirus (HIV-1).
The target in experiment [7] is HIV-1 JR-CSF Env F468A (HIV-1 (isolate JR-CSF)) (UniProt P20871).
Experiment [8] concerns the target HIV-1 JR-CSF Env W395A (HIV-1 (isolate JR-CSF)) (UniProt P20871).
Experiment [9] concerns the target HIV-1 envelope glycoprotein (Env) of isolate CMU02, subtype AE (HIV-1).
The target of experiment [10] is HIV-1 envelope glycoprotein (Env) of isolate CAAN.A2, on pseudovirus (HIV-1).
Experiment [11] has as its target HIV-1 Env of isolate MGRM-AG-012 (pseudovirus) (HIV-1).
The target in experiment [12] is HIV-1 Env of isolate MGRM-F1-016 (pseudovirus) (HIV-1).
Experiment [13] concerns the target HIV-1 Env of pseudovirus MGRM-D-024 (HIV-1).
The target in experiment [14] is HIV-1 envelope glycoprotein (Env) of isolate MG RM-AG-001 (HIV-1).
Experiment [15] addresses HIV-1 Env of pseudovirus MGRM-F1-016 (HIV-1).
The target of experiment [16] is HIV-1 Env of isolate MGRM-AE-001 (pseudovirus) (HIV-1).
For experiment [17], the target named is HIV-1 Env of isolate MGRM-G-019 (subtype G) (HIV-1).
Experiment [18] has as its target HIV-1 Env of isolate MGRM-G-013 (subtype G) (HIV-1).
The target of experiment [19] is HIV-1 Env of isolate MGRM-G-017 (subtype G) (HIV-1).
The target in experiment [20] is HIV-1 Env of isolate MGRM-C-023 (subtype C), on pseudovirus (HIV-1).
The target in experiment [21] is HIV-1 Env of isolate MG RM-A-011 (pseudovirus) (HIV-1).
Experiment [22] addresses HIV-1 Env of isolate MGRM-D-005 (HIV-1).
In experiment [23] the target is HIV-1 Env of isolate MG RM-A-009 (pseudovirus) (HIV-1).
Experiment [24] has as its target HIV-1 Env of pseudovirus isolate MGRM-Chronic-B-008 (clade B) (HIV-1).
In experiment [25] the target is HIV-1 Env of isolate MGRM-F1-012 (HIV-1).
For experiment [26], the target named is HIV-1 Env of pseudovirus isolate MGRM-C-027 (clade C) (HIV-1).
In experiment [27] the target is HIV-1 Env of isolate 92UG001 (pseudovirus) (HIV-1).
The target of experiment [28] is HIV-1 Env of pseudovirus isolate MGRM-C-006 (clade C) (HIV-1).
Experiment [29] has as its target HIV-1 Env of isolate MGRM-A-013 (subtype A) (HIV-1).
Experiment [30] deals with HIV-1 Env of isolate MGRM-D-020 (pseudovirus) (HIV-1).
The target of experiment [31] is HIV-1 Env of isolate PVO.4 (Acute), clade B (HIV-1).
In experiment [32] the target is HIV-1 Env of isolate MGRM-A-009 (clade A pseudovirus) (HIV-1).
The target in experiment [33] is HIV-1 envelope glycoprotein (Env) of isolate MGRM-C-014 (HIV-1).
Experiment [34] addresses HIV-1 Env of isolate MGRM-A-013 (clade A pseudovirus) (HIV-1).
Experiment [35] concerns the target HIV-1 envelope glycoprotein (Env) of isolate LAVIC_18 (HIV-1).
Experiment [36] deals with HIV-1 Env of isolate TRO.11 (Acute), clade B (HIV-1).
Experiment [37] has as its target HIV-1 Env of isolate NL43, clade B (HIV-1).
The target of experiment [38] is HIV-1 MGRM-AG-012 Env (pseudovirus) (HIV-1).
Experiment [39] has as its target HIV-1 Env of isolate MGRM-D-008 (clade D pseudovirus) (HIV-1).
Experiment [40] addresses HIV-1 MGRM-AE-005 Env (pseudovirus) (HIV-1).

Sequence of 4995_E20 (PGT-142) (antibody) (VH): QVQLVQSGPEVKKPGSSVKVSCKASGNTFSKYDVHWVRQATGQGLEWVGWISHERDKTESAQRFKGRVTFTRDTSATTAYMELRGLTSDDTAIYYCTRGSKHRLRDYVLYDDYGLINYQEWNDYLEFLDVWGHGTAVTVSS
Sequence of 4995_E20 (PGT-142) (antibody) (VL): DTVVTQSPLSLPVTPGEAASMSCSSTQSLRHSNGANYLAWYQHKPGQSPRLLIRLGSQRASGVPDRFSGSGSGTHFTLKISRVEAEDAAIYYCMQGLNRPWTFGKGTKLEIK
Sequence of 4995_P16 (PGT-145) (antibody) (VH): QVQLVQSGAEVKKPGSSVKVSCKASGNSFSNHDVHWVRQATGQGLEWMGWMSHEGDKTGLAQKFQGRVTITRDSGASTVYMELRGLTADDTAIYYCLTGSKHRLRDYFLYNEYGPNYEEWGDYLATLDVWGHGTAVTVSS
Sequence of 4995_P16 (PGT-145) (antibody) (VL): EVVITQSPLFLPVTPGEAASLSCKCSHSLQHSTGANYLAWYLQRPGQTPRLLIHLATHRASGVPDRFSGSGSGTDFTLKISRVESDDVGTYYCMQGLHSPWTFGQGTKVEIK
Sequence of 4993_K13 (PGT-141) (antibody) (VH): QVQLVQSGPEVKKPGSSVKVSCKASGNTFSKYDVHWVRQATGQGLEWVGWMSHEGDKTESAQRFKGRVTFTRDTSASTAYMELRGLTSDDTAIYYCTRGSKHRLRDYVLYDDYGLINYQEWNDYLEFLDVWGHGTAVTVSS
Sequence of 4980_N08 (PGT-143) (antibody) (VH): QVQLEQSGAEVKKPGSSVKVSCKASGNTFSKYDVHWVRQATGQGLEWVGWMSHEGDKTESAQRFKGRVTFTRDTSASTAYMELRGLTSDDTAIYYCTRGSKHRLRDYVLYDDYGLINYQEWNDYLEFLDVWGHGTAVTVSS
Sequence of 4980_N08 (PGT-143) (antibody) (VL): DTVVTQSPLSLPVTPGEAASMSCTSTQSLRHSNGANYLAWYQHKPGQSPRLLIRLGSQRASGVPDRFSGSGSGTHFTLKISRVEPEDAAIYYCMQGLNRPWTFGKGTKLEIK
Sequence of 4970_K22 (PGT-144) (antibody) (VH): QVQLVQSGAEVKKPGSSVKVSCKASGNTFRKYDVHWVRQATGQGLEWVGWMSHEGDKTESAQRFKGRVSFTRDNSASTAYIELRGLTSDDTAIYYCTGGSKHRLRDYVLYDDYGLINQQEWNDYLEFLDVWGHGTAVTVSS
Sequence of 4970_K22 (PGT-144) (antibody) (VL): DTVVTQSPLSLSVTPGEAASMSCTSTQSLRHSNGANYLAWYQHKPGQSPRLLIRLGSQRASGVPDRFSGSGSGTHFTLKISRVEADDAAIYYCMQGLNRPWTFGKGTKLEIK
Sequence of 5329_C19 (PGT-136) (antibody) (VH): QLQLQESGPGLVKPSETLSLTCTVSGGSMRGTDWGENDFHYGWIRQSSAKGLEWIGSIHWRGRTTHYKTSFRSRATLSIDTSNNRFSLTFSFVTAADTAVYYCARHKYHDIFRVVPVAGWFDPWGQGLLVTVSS
Sequence of 5329_C19 (PGT-136) (antibody) (VL): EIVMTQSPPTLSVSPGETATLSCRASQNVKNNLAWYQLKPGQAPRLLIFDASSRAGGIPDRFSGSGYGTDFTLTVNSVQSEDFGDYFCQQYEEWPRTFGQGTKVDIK
Sequence of 5345_I01 (PGT-137) (antibody) (VH): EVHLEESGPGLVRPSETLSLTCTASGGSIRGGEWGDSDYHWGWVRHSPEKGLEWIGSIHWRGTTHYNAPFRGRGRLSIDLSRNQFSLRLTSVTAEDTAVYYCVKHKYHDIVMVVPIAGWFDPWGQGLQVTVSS
Sequence of 5345_I01 (PGT-137) (antibody) (VL): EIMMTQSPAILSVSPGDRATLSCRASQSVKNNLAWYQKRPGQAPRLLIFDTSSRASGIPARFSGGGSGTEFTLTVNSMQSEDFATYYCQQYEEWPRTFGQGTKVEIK

4858_P08 (PGT-123) (antibody): the IC50 (ug/mL), pseudovirus neutralization in experiment [1] was > 10 µg/mL. Moreover, the IC50, pseudovirus neutralization in experiment [2] was 3 ng/mL; in experiment [3], 0.0169 µg/mL; in experiment [4] it was 5 ng/mL; in [6] it was > 50 µg/mL; in [9] it was > 50 µg/mL; in [10], 0.015 µg/mL. In addition, the Fold IC50 increase relative to wild-type (pseudovirus neutralization) stood at 1.2 fold in experiment [5], 0.5 fold in experiment [7] and 0.4 fold in experiment [8]. Also, the IC50 (µg/mL), pseudovirus neutralization in experiment [11] is > 50 µg/mL; in [12], 4.95 µg/mL.

Consider 4838_L06 (PGT-121) (antibody), for which the IC50 (ug/mL), pseudovirus neutralization in experiment [1] was > 10 µg/mL. Also, the IC50, pseudovirus neutralization in experiment [2] was 3 ng/mL; in experiment [4], 9 ng/mL; in [6] it was > 50 µg/mL; in experiment [9] it was > 50 µg/mL; in experiment [10] it was 0.011 µg/mL. The substance further gave an IC50 (µg/mL), pseudovirus neutralization in experiment [12] of 0.931 µg/mL.

Take PGT-142 (4995_E20) (antibody): the IC50, pseudovirus neutralization in experiment [13] and in [15] was > 50 µg/mL each time. This substance showed an IC50 in experiment [14] of 12.4 µg/mL.

Regarding PGV04 (antibody), the IC50 (µg/mL), pseudovirus neutralization in experiment [16] stood at 0.063 µg/mL; in [17] it was 0.027 µg/mL; in experiment [18], 0.168 µg/mL; in experiment [19] it was 0.065 µg/mL; in [11] it was 0.04 µg/mL.

Regarding 4970_K22 (PGT-144) (antibody), the IC50 (µg/mL), single-round pseudovirus neutralization is > 50 µg/mL in experiment [16], > 50 µg/mL in experiment [21] and 2.83 µg/mL in experiment [23]. Also, the IC50 (µg/mL), pseudovirus neutralization in [17] is > 50 µg/mL; in experiment [18], > 50 µg/mL; in [22] it was 14.8 µg/mL; in [19], 9.97 µg/mL. In [20], this substance showed an IC50, single-round pseudovirus neutralization of 0.38 µg/mL. The IC50, pseudovirus neutralization in experiment [24] is > 50 µg/mL.

In the case of 4995_E20 (PGT-142) (antibody), the IC50 (µg/mL), single-round pseudovirus neutralization was > 50 µg/mL in [16], > 50 µg/mL in [21] and 0.058 µg/mL in [23]. The IC50 (µg/mL), pseudovirus neutralization in experiment [17] was 5.95 µg/mL; in experiment [18] it was > 50 µg/mL; in experiment [22] it was 1.15 µg/mL; in [19], 0.125 µg/mL. The same substance returned an IC50, single-round pseudovirus neutralization in experiment [20] of 0.087 µg/mL. The IC50, pseudovirus neutralization in experiment [24] is > 50 µg/mL.

With 4877_D15 (PGT-122) (antibody), in experiment [1], the IC50 (ug/mL), pseudovirus neutralization was > 10 µg/mL. The IC50, pseudovirus neutralization in [2] was 3 ng/mL; in experiment [3] it was 0.0388 µg/mL; in experiment [4], 21 ng/mL; in experiment [6], > 50 µg/mL; in experiment [9], > 50 µg/mL; in [10], 0.011 µg/mL. The figures for the IC50 (µg/mL), pseudovirus neutralization in [11] and in experiment [12] were > 50 µg/mL and 4.81 µg/mL, respectively.

With 5345_I01 (PGT-137) (antibody), the IC50 (µg/mL), pseudovirus neutralization in experiment [25], in experiment [27] and in experiment [30] was > 50 µg/mL in each case. The IC50, pseudovirus neutralization in experiment [26] is > 50 µg/mL; in [28], > 50 µg/mL; in experiment [29], 49.2 µg/mL.

Take 5343_B08 (PGT-135) (antibody): the IC50 (ug/mL), pseudovirus neutralization in experiment [1] came out at 0.0139 µg/mL. For the same substance, the IC50 (µg/mL), pseudovirus neutralization in experiment [25] is 0.01 µg/mL; in experiment [27], > 50 µg/mL; in [30], > 50 µg/mL. The IC50, pseudovirus neutralization in experiment [26], in experiment [28] and in experiment [29] was > 50 µg/mL throughout. The values for the Fold IC50 increase relative to wild-type (pseudovirus neutralization) in experiment [5], in experiment [7] and in experiment [8] were 1 fold, 1.1 fold and 0.6 fold, respectively.

Turning to 5329_C19 (PGT-136) (antibody), in experiment [1], the IC50 (ug/mL), pseudovirus neutralization is 0.0915 µg/mL. Further, the IC50 (µg/mL), pseudovirus neutralization in experiment [25], in experiment [27] and in experiment [30] was > 50 µg/mL each time. Moreover, the IC50, pseudovirus neutralization in experiment [26], in experiment [28] and in experiment [29] was > 50 µg/mL in each case.

Turning to 4993_K13 (PGT-141) (antibody), the IC50 (µg/mL), single-round pseudovirus neutralization was > 50 µg/mL in [16], > 50 µg/mL in [21] and 0.029 µg/mL in experiment [23]. Further, the IC50 (µg/mL), pseudovirus neutralization in experiment [17] was 20.3 µg/mL; in experiment [18], > 50 µg/mL; in experiment [22], 5.15 µg/mL; in experiment [19], 0.164 µg/mL. The IC50, single-round pseudovirus neutralization in [20] is 0.153 µg/mL. Besides, in experiment [24], the IC50, pseudovirus neutralization was > 50 µg/mL.

In the case of 4995_P16 (PGT-145) (antibody), the results for the IC50 (µg/mL), single-round pseudovirus neutralization in [16], in experiment [21] and in experiment [23] were 20.9 µg/mL, 0.484 µg/mL and 0.235 µg/mL, respectively. Also, the IC50 (µg/mL), pseudovirus neutralization is 0.041 µg/mL in [17], > 50 µg/mL in experiment [18], 10.4 µg/mL in experiment [22] and 0.205 µg/mL in [19]. This substance had an IC50, single-round pseudovirus neutralization in experiment [20] of 0.201 µg/mL. This substance also came in with an IC50, pseudovirus neutralization in [24] of 1.9 µg/mL.

On to 4980_N08 (PGT-143) (antibody), for which the IC50 (µg/mL), single-round pseudovirus neutralization in [16] is > 50 µg/mL; in [21], > 50 µg/mL; in [23], 0.05 µg/mL. Besides, the IC50 (µg/mL), pseudovirus neutralization is 4.77 µg/mL in [17], > 50 µg/mL in experiment [18], 1.41 µg/mL in experiment [22] and 0.107 µg/mL in experiment [19]. This substance also came in with an IC50, single-round pseudovirus neutralization in experiment [20] of 0.148 µg/mL. Further, the IC50, pseudovirus neutralization in experiment [24] is > 50 µg/mL.

Turning to 1496_C09 (PG9) (TCN-109) (antibody), the IC50 (µg/mL), pseudovirus neutralization in experiment [16] was determined as 20.6 µg/mL; in experiment [17] it was 14.6 µg/mL; in experiment [19] it was 0.104 µg/mL; in experiment [11] it was 22.8 µg/mL. The same substance registered an IC50 (ug/mL), pseudovirus neutralization in experiment [1] of 1.91 µg/mL. Besides, the IC50, pseudovirus neutralization in [3] was 2.45 µg/mL; in [39], 6.86 µg/mL. Moreover, the IC50 (µg/ml), pseudovirus neutralization in experiment [31] is 4.01 µg/mL; in experiment [32], 0.03 µg/mL; in experiment [33] it was 0.64 µg/mL; in experiment [34] it was 0.16 µg/mL; in [35], 0.1 µg/mL; in experiment [36], 5.43 µg/mL. Besides, the IC50 (µg/ml), pseudovirus neutralization in [37] was found to be 0.32 µg/mL; in experiment [38] it was 1.37 µg/mL; in [40], 0.16 µg/mL.
